Measurements reported in patent US20190263863A1 (GENOIMMUNE THERAPEUTICS, published 2019).

B1: wild-type polypeptide FLLGNLSFV (SEQ ID NO:5) (peptide)
peptide: FLLGNLSFV
notes: Made by solid phase peptide synthesis, HPLC purity >90%
B2: mutant polypeptide's variant FLLGNLFFL (SEQ ID NO:2) (peptide)
peptide: FLLGNLFFL
notes: as for B1
B3: mutant polypeptide FLLGNLFFV (SEQ ID NO:1) (peptide)
peptide: FLLGNLFFV
notes: Made by solid phase peptide synthesis, HPLC purity >90%; also called OR4K5 S67F mutant polypeptide
B4: mutant polypeptide's variant FMLGNLFFL (SEQ ID NO:4) (peptide)
peptide: FMLGNLFFL
notes: as for B1
B5: mutant polypeptide's variant FMLGNLFFV (SEQ ID NO:3) (peptide)
peptide: FMLGNLFFV
notes: as for B1

Target: T1, HLA-A0201 on the surface of T2 cells (human)
T1 construct: surface HLA-A*02:01 is detected with an anti-HLA-A*02:01 FITC monoclonal antibody after loading with peptide
Assay: T2 cell peptide loading assay, 100 uM peptide, anti-HLA-A*02:01 FITC, flow cytometry
Experimental: After centrifugation at 200 g for 5 minutes for cell collection, the collected cells were washed with phosphate buffer saline (PBS) buffer twice, before incubated with anti-HLA-A*02:01 FITC monoclonal antibody at 4° C. for 30 minutes. The mean fluorescence intensity of cells was then detected and analyzed by the flow cytometry (BD FACSJazz™) and its software.

Binder | FI (fluorescence index) | Mean fluorescence intensity
B1 | 2.27 | 724
B2 | 2.17 | 702
B3 | 2.22 | 713
B4 | 2.1 | 686
B5 | 2.13 | 694
